The target in assay [1] is binding partner of C5A (XPA23). Kind of assay: Biacore. For orientation: In SPR one partner is held on a chip, and binding of the other changes the refractive index at the surface.
Assay [2] deals with binding partner of C5A (XPA23). Kind of assay: Biacore, K-off.

B1: C5A (XPA23) VH F35D (antibody, V domains shown)
VH: EVQLLESGGGLVQPGGSLRLSCAASGFTFSKYFMDWVRQAPGKGLEWVSVISPSGGMTRYADSVKGRFTISRDNSKNTLYLQMNSLRAEDTAVYYCARVGYGGNSDYWGQGTLVTVSS
VL: DIQMTQSPSSVSASVGDRLTIICRASQDINRWLAWYQQTPGNAPKLLIHSATSLQSGVPSRFSGSGSGTDFTLTINSLQPEDFATYYCQQADSFPLTFGGGTKVEIK
As for B1, the fold affinity vs original in assay [1] came to 0.06 fold. Further, the fold difference in affinity vs original in assay [2] was found to be 0.06 fold.

B2: C5A (XPA23) VH I51R (antibody, V domains shown)
VH: EVQLLESGGGLVQPGGSLRLSCAASGFTFSKYFMFWVRQAPGKGLEWVSVRSPSGGMTRYADSVKGRFTISRDNSKNTLYLQMNSLRAEDTAVYYCARVGYGGNSDYWGQGTLVTVSS
VL: DIQMTQSPSSVSASVGDRLTIICRASQDINRWLAWYQQTPGNAPKLLIHSATSLQSGVPSRFSGSGSGTDFTLTINSLQPEDFATYYCQQADSFPLTFGGGTKVEIK
For B2, the fold affinity vs original in assay [1] was found to be 0.1 fold. Further, the fold difference in affinity vs original in assay [2] came to 0.1 fold.

B3: C5A (XPA23) VH I51E (antibody, V domains shown)
VH: EVQLLESGGGLVQPGGSLRLSCAASGFTFSKYFMFWVRQAPGKGLEWVSVESPSGGMTRYADSVKGRFTISRDNSKNTLYLQMNSLRAEDTAVYYCARVGYGGNSDYWGQGTLVTVSS
VL: DIQMTQSPSSVSASVGDRLTIICRASQDINRWLAWYQQTPGNAPKLLIHSATSLQSGVPSRFSGSGSGTDFTLTINSLQPEDFATYYCQQADSFPLTFGGGTKVEIK
As to B3, in assay [1], the fold affinity vs original came out at 0.73 fold. Moreover, the fold difference in affinity vs original in assay [2] was found to be 0.73 fold.

B4: C5A (XPA23) VH I51Q (antibody, V domains shown)
VH: EVQLLESGGGLVQPGGSLRLSCAASGFTFSKYFMFWVRQAPGKGLEWVSVQSPSGGMTRYADSVKGRFTISRDNSKNTLYLQMNSLRAEDTAVYYCARVGYGGNSDYWGQGTLVTVSS
VL: DIQMTQSPSSVSASVGDRLTIICRASQDINRWLAWYQQTPGNAPKLLIHSATSLQSGVPSRFSGSGSGTDFTLTINSLQPEDFATYYCQQADSFPLTFGGGTKVEIK
On to B4, for which the fold affinity vs original in assay [1] was 0.83 fold. The fold difference in affinity vs original in assay [2] worked out at 0.83 fold.

B5: C5A (XPA23) VH I51D (antibody, V domains shown)
VH: EVQLLESGGGLVQPGGSLRLSCAASGFTFSKYFMFWVRQAPGKGLEWVSVDSPSGGMTRYADSVKGRFTISRDNSKNTLYLQMNSLRAEDTAVYYCARVGYGGNSDYWGQGTLVTVSS
VL: DIQMTQSPSSVSASVGDRLTIICRASQDINRWLAWYQQTPGNAPKLLIHSATSLQSGVPSRFSGSGSGTDFTLTINSLQPEDFATYYCQQADSFPLTFGGGTKVEIK
For the molecule B5, the fold affinity vs original in assay [1] came out at 0.07 fold. Moreover, in assay [2], the fold difference in affinity vs original is 0.07 fold.

B6: C5A (XPA23) VH F35K (antibody, V domains shown)
VH: EVQLLESGGGLVQPGGSLRLSCAASGFTFSKYFMKWVRQAPGKGLEWVSVISPSGGMTRYADSVKGRFTISRDNSKNTLYLQMNSLRAEDTAVYYCARVGYGGNSDYWGQGTLVTVSS
VL: DIQMTQSPSSVSASVGDRLTIICRASQDINRWLAWYQQTPGNAPKLLIHSATSLQSGVPSRFSGSGSGTDFTLTINSLQPEDFATYYCQQADSFPLTFGGGTKVEIK
B6: the fold affinity vs original in assay [1] was 0.68 fold. Also, the fold difference in affinity vs original in assay [2] amounted to 0.68 fold.

B7: C5A (XPA23) VH V50N (antibody, V domains shown)
VH: EVQLLESGGGLVQPGGSLRLSCAASGFTFSKYFMFWVRQAPGKGLEWVSNISPSGGMTRYADSVKGRFTISRDNSKNTLYLQMNSLRAEDTAVYYCARVGYGGNSDYWGQGTLVTVSS
VL: DIQMTQSPSSVSASVGDRLTIICRASQDINRWLAWYQQTPGNAPKLLIHSATSLQSGVPSRFSGSGSGTDFTLTINSLQPEDFATYYCQQADSFPLTFGGGTKVEIK
For B7, the fold affinity vs original in assay [1] is 0.03 fold. Besides, the fold difference in affinity vs original in assay [2] was determined as 0.03 fold.

B8: C5A (XPA23) VH S52T (antibody, V domains shown)
VH: EVQLLESGGGLVQPGGSLRLSCAASGFTFSKYFMFWVRQAPGKGLEWVSVITPSGGMTRYADSVKGRFTISRDNSKNTLYLQMNSLRAEDTAVYYCARVGYGGNSDYWGQGTLVTVSS
VL: DIQMTQSPSSVSASVGDRLTIICRASQDINRWLAWYQQTPGNAPKLLIHSATSLQSGVPSRFSGSGSGTDFTLTINSLQPEDFATYYCQQADSFPLTFGGGTKVEIK
For B8, the fold difference in affinity vs original in assay [1] and in assay [2] was 0.04 fold throughout.

B9: C5A (XPA23) VH V50T (antibody, V domains shown)
VH: EVQLLESGGGLVQPGGSLRLSCAASGFTFSKYFMFWVRQAPGKGLEWVSTISPSGGMTRYADSVKGRFTISRDNSKNTLYLQMNSLRAEDTAVYYCARVGYGGNSDYWGQGTLVTVSS
VL: DIQMTQSPSSVSASVGDRLTIICRASQDINRWLAWYQQTPGNAPKLLIHSATSLQSGVPSRFSGSGSGTDFTLTINSLQPEDFATYYCQQADSFPLTFGGGTKVEIK
Take B9: the fold difference in affinity vs original in assay [1] and in assay [2] was 0.03 fold each time.

B10: C5A (XPA23) VH I51H (antibody, V domains shown)
VH: EVQLLESGGGLVQPGGSLRLSCAASGFTFSKYFMFWVRQAPGKGLEWVSVHSPSGGMTRYADSVKGRFTISRDNSKNTLYLQMNSLRAEDTAVYYCARVGYGGNSDYWGQGTLVTVSS
VL: DIQMTQSPSSVSASVGDRLTIICRASQDINRWLAWYQQTPGNAPKLLIHSATSLQSGVPSRFSGSGSGTDFTLTINSLQPEDFATYYCQQADSFPLTFGGGTKVEIK
Consider B10, for which the fold affinity vs original in assay [1] is 0.08 fold. In assay [2], the fold difference in affinity vs original came to 0.08 fold.

B11: C5A (XPA23) VH I51T (antibody, V domains shown)
VH: EVQLLESGGGLVQPGGSLRLSCAASGFTFSKYFMFWVRQAPGKGLEWVSVTSPSGGMTRYADSVKGRFTISRDNSKNTLYLQMNSLRAEDTAVYYCARVGYGGNSDYWGQGTLVTVSS
VL: DIQMTQSPSSVSASVGDRLTIICRASQDINRWLAWYQQTPGNAPKLLIHSATSLQSGVPSRFSGSGSGTDFTLTINSLQPEDFATYYCQQADSFPLTFGGGTKVEIK
B11: the fold difference in affinity vs original in assay [1] and in assay [2] was 0.86 fold throughout.

B12: C5A (XPA23) VH I51N (antibody, V domains shown)
VH: EVQLLESGGGLVQPGGSLRLSCAASGFTFSKYFMFWVRQAPGKGLEWVSVNSPSGGMTRYADSVKGRFTISRDNSKNTLYLQMNSLRAEDTAVYYCARVGYGGNSDYWGQGTLVTVSS
VL: DIQMTQSPSSVSASVGDRLTIICRASQDINRWLAWYQQTPGNAPKLLIHSATSLQSGVPSRFSGSGSGTDFTLTINSLQPEDFATYYCQQADSFPLTFGGGTKVEIK
For the molecule B12, the fold affinity vs original in assay [1] turned out to be 0.68 fold. For the same molecule, in assay [2], the fold difference in affinity vs original was found to be 0.68 fold.

B13: C5A (XPA23) VH I51Y (antibody, V domains shown)
VH: EVQLLESGGGLVQPGGSLRLSCAASGFTFSKYFMFWVRQAPGKGLEWVSVYSPSGGMTRYADSVKGRFTISRDNSKNTLYLQMNSLRAEDTAVYYCARVGYGGNSDYWGQGTLVTVSS
VL: DIQMTQSPSSVSASVGDRLTIICRASQDINRWLAWYQQTPGNAPKLLIHSATSLQSGVPSRFSGSGSGTDFTLTINSLQPEDFATYYCQQADSFPLTFGGGTKVEIK
Turning to B13, the fold affinity vs original in assay [1] turned out to be 1.75 fold. Further, in assay [2], the fold difference in affinity vs original came out at 1.75 fold.

B14: C5A (XPA23) VH F35Y (antibody, V domains shown)
VH: EVQLLESGGGLVQPGGSLRLSCAASGFTFSKYFMYWVRQAPGKGLEWVSVISPSGGMTRYADSVKGRFTISRDNSKNTLYLQMNSLRAEDTAVYYCARVGYGGNSDYWGQGTLVTVSS
VL: DIQMTQSPSSVSASVGDRLTIICRASQDINRWLAWYQQTPGNAPKLLIHSATSLQSGVPSRFSGSGSGTDFTLTINSLQPEDFATYYCQQADSFPLTFGGGTKVEIK
Turning to B14, in assay [1], the fold affinity vs original was 0.85 fold. In assay [2], the fold difference in affinity vs original is 0.85 fold.

B15: C5A (XPA23) VH F35N (antibody, V domains shown)
VH: EVQLLESGGGLVQPGGSLRLSCAASGFTFSKYFMNWVRQAPGKGLEWVSVISPSGGMTRYADSVKGRFTISRDNSKNTLYLQMNSLRAEDTAVYYCARVGYGGNSDYWGQGTLVTVSS
VL: DIQMTQSPSSVSASVGDRLTIICRASQDINRWLAWYQQTPGNAPKLLIHSATSLQSGVPSRFSGSGSGTDFTLTINSLQPEDFATYYCQQADSFPLTFGGGTKVEIK
For the molecule B15, the fold affinity vs original in assay [1] was 0.86 fold. The fold difference in affinity vs original in assay [2] was determined as 0.86 fold.

B16: C5A (XPA23) VH I51S (antibody, V domains shown)
VH: EVQLLESGGGLVQPGGSLRLSCAASGFTFSKYFMFWVRQAPGKGLEWVSVSSPSGGMTRYADSVKGRFTISRDNSKNTLYLQMNSLRAEDTAVYYCARVGYGGNSDYWGQGTLVTVSS
VL: DIQMTQSPSSVSASVGDRLTIICRASQDINRWLAWYQQTPGNAPKLLIHSATSLQSGVPSRFSGSGSGTDFTLTINSLQPEDFATYYCQQADSFPLTFGGGTKVEIK
Turning to B16, in assay [1], the fold affinity vs original amounted to 0.69 fold. In addition, in assay [2], the fold difference in affinity vs original came out at 0.69 fold.

B17: C5A (XPA23) VH F35S (antibody, V domains shown)
VH: EVQLLESGGGLVQPGGSLRLSCAASGFTFSKYFMSWVRQAPGKGLEWVSVISPSGGMTRYADSVKGRFTISRDNSKNTLYLQMNSLRAEDTAVYYCARVGYGGNSDYWGQGTLVTVSS
VL: DIQMTQSPSSVSASVGDRLTIICRASQDINRWLAWYQQTPGNAPKLLIHSATSLQSGVPSRFSGSGSGTDFTLTINSLQPEDFATYYCQQADSFPLTFGGGTKVEIK
B17: the fold affinity vs original in assay [1] is 0.09 fold. The fold difference in affinity vs original in assay [2] stood at 0.09 fold.

B18: C5A (XPA23) VH I51K (antibody, V domains shown)
VH: EVQLLESGGGLVQPGGSLRLSCAASGFTFSKYFMFWVRQAPGKGLEWVSVKSPSGGMTRYADSVKGRFTISRDNSKNTLYLQMNSLRAEDTAVYYCARVGYGGNSDYWGQGTLVTVSS
VL: DIQMTQSPSSVSASVGDRLTIICRASQDINRWLAWYQQTPGNAPKLLIHSATSLQSGVPSRFSGSGSGTDFTLTINSLQPEDFATYYCQQADSFPLTFGGGTKVEIK
Consider B18, for which, in assay [1], the fold affinity vs original is 0.11 fold. The fold difference in affinity vs original in assay [2] is 0.11 fold.

B19: C5A (XPA23) VH F35T (antibody, V domains shown)
VH: EVQLLESGGGLVQPGGSLRLSCAASGFTFSKYFMTWVRQAPGKGLEWVSVISPSGGMTRYADSVKGRFTISRDNSKNTLYLQMNSLRAEDTAVYYCARVGYGGNSDYWGQGTLVTVSS
VL: DIQMTQSPSSVSASVGDRLTIICRASQDINRWLAWYQQTPGNAPKLLIHSATSLQSGVPSRFSGSGSGTDFTLTINSLQPEDFATYYCQQADSFPLTFGGGTKVEIK
B19: the fold difference in affinity vs original in assay [1] and in assay [2] was 0.74 fold throughout.
